Results on five molecules are retold here after PMC6191146, “Positive and negative regulation of transferred nif genes mediated by indigenous GlnR in Gram-positive Paenibacillus polymyxa”.

The target of data set [1] is His6-tagged GlnR of Paenibacillus polymyxa WLY78 (Paenibacillus polymyxa WLY78). Briefly: SEC; Superdex 200 10/300, 50 mM Tris-HCl pH 7.4, 300 mM NaCl; His6-GlnR at 2 mg/ml; dimer to monomers, broad peak with two maxima.
Data set [2] deals with T1, GlnR (Paenibacillus polymyxa WLY78, UniProt A0A074LG55 1-137).
T1 sequence: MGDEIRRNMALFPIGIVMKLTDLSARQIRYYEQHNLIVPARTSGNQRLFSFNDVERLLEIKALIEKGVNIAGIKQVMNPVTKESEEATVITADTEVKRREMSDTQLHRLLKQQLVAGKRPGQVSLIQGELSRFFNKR
Briefly: EMSA; GlnR alone; EMSA: 20 mM HEPES pH 7.6, 1 mM EDTA, 10 mM (NH4)2SO4, 1 mM DTT, 0.2% Tween 20, 30 mM KCl, 1 ug poly[d(A-T)], 0.3 nM probe, 25 C; SPR: 10 mM HEPES pH 7.4, 300 mM NaCl, 3 mM MgCl2, 0.2 mM EDTA, 0.005% Tween-20, 25 C. To be noted: protein: recombinant; tags: N-terminal His6 (pET-28b); chain copies: 2; label: DIG 3' end; blunt.

Data set [3] has as its target T1, GlnR. Briefly: SPR; GlnR alone; EMSA: 20 mM HEPES pH 7.6, 1 mM EDTA, 10 mM (NH4)2SO4, 1 mM DTT, 0.2% Tween 20, 30 mM KCl, 1 ug poly[d(A-T)], 0.3 nM probe, 25 C; SPR: 10 mM HEPES pH 7.4, 300 mM NaCl, 3 mM MgCl2, 0.2 mM EDTA, 0.005% Tween-20, 25 C. To be noted: protein: recombinant, tags: N-terminal His6 (pET-28b), chain copies: 2, label: 5' biotin on capture linker S7, 39 bp duplex.

The target in data set [4] is T1, GlnR. Briefly: SPR; GlnR alone; slow dissociation; EMSA: 20 mM HEPES pH 7.6, 1 mM EDTA, 10 mM (NH4)2SO4, 1 mM DTT, 0.2% Tween 20, 30 mM KCl, 1 ug poly[d(A-T)], 0.3 nM probe, 25 C; SPR: 10 mM HEPES pH 7.4, 300 mM NaCl, 3 mM MgCl2, 0.2 mM EDTA, 0.005% Tween-20, 25 C. The note with it: protein: recombinant; tags: N-terminal His6 (pET-28b); chain copies: 2; label: 5' biotin on capture linker S7; 39 bp duplex; 3' overhang 20 nt of BS2R paired to the capture linker.

For data set [5], the target named is T1, GlnR. Briefly: SPR; GlnR alone; fast dissociation; EMSA: 20 mM HEPES pH 7.6, 1 mM EDTA, 10 mM (NH4)2SO4, 1 mM DTT, 0.2% Tween 20, 30 mM KCl, 1 ug poly[d(A-T)], 0.3 nM probe, 25 C; SPR: 10 mM HEPES pH 7.4, 300 mM NaCl, 3 mM MgCl2, 0.2 mM EDTA, 0.005% Tween-20, 25 C. The note with it: protein: recombinant; tags: N-terminal His6 (pET-28b); chain copies: 2; label: 5' biotin on capture linker S7; 39 bp duplex; 3' overhang 20 nt of BS1R paired to the capture linker.

Molecule “His6-tagged GlnR of Paenibacillus polymyxa WLY78 (natural protein)” returned a stoichiometry N in data set [1] of 2.

B1: EMSA probe mutated site I (TGACGT to GGTACC) (dsDNA)
DNA 1: ACCGCGCACATGTAAAGTGTACGATATATTACTGGTACCAAAATTTGACACATATGTGA
DNA 2: TCACATATGTGTCAAATTTTGGTACCAGTAATATATCGTACACTTTACATGTGCGCGGT
On to B1, for which the binding result in the data set with GlnR [2] was “no binding”.

B2: EMSA probe mutated site II (ATAACG to ATCGAT) (dsDNA)
DNA 1: AGACAAAAACAGAGATTTATGTAAGGGAATAATCGATAGAGAGGAGGGAATGA
DNA 2: TCATTCCCTCCTCTCTATCGATTATTCCCTTACATAAATCTCTGTTTTTGTCT
Take B2: the binding result with GlnR [2] was “no binding”.

B3: SPR oligo site II (BS2F/BS2R on capture linker) (dsDNA)
DNA 1: AACAGAGATTTATGTAAGGGAATATAACGTAGAGAGGAG
DNA 2: CTCCTCTCTACGTTATATTCCCTTACATAAATCTCTGTTCCTACCCTACGTCCTCCTGC
DNA 3: GCAGGAGGACGTAGGGTAGG
With B3, the Ka in the data set with GlnR [3] (3' overhang 20 nt of BS2R paired to the capture linker) was 1.86e+07 M-1 (unit not printed in text). In addition, the Kd in the data set with GlnR [4] was 5.37e-08 M (unit not printed in text).

B4: SPR oligo site I (BS1F/BS1R on capture linker) (dsDNA)
DNA 1: GTAAAGTGTACGATATATTACTTGACGTAAAATTTGACA
DNA 2: TGTCAAATTTTACGTCAAGTAATATATCGTACACTTTACCCTACCCTACGTCCTCCTGC
DNA 3: GCAGGAGGACGTAGGGTAGG
For B4, the equilibrium dissociation constant (Kd) with GlnR [5] is 9.16e-07 M (unit not printed in text). For the same molecule, the Ka in the data set with GlnR [3] (3' overhang 20 nt of BS1R paired to the capture linker) is 1.09e+06 M-1 (unit not printed in text).
